Test results published in publication PMC3267858 (Nature, 2012).

What was measured:
crystal structure = target: the molecule itself; test: crystal structure
SEC = target: the molecule itself; test: SEC

Protein	stoichiometry N (crystal structure)	stoichiometry N (SEC)
C-linker/CNBHD of zebrafish ELK channel (amino acids Q543-L750) (domain or fragment, Danio rerio (zebrafish), UniProt A8WHX9 543-750, looked up) QRMYSRRSLYHTRTKDLKDFIRVHRLPKALAQRMLECFQTTWSVNNGIDVSELLKDFPDELRADIAMHLNKELLQLPLFESASRGCLRSLSLIIKTSFCAPGEFLIRQGDALQAIYFVCSGSMEVLKDNTVLAILGKGDLIGSDSLTKEQVIKTNANVKALTYCDLQYISLKGLREVLRLYPEYAQKFVSEIQHDLTYNLREGSGADL	2	
GFP-tagged C-linker/CNBHD of zELK channels (amino acids Q543-L750) (domain or fragment, Danio rerio (zebrafish), UniProt A8WHX9 543-750, looked up) QRMYSRRSLYHTRTKDLKDFIRVHRLPKALAQRMLECFQTTWSVNNGIDVSELLKDFPDELRADIAMHLNKELLQLPLFESASRGCLRSLSLIIKTSFCAPGEFLIRQGDALQAIYFVCSGSMEVLKDNTVLAILGKGDLIGSDSLTKEQVIKTNANVKALTYCDLQYISLKGLREVLRLYPEYAQKFVSEIQHDLTYNLREGSGADL		2
